Results: the supplement of paper PMC9112550, “Optimization of the antimicrobial peptide Bac7 by deep mutational scanning” (BMC Biology, 2022)

Test system: Escherichia coli TOP10
Test: shrunken log2 fold change of peptide-encoding DNA abundance (4.5 h post-induction vs induction); higher = less antimicrobial activity (less host growth inhibition)
Conditions: time post-induction: 4.5 h; library: site-saturation at positions 5, 18, 19, 20
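Also: peptides expressed intracellularly from a pBAD plasmid library in pooled LB shake-flask culture, induced with 0.3% L-arabinose, DNA abundance read by NGS, three biological replicates, DESeq2 with apeglm shrinkage.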

Row | Sequence | shrunken log2 fold change
1 | RRIRDRPPRLPRPRPRPYQMPRP | -0.796
2 | RRIRFRPPRLPRPRPRPAKHPRP | -0.149
3 | RRIRDRPPRLPRPRPRPEYMPRP | -0.00941
4 | RRIRFRPPRLPRPRPRPYNHPRP | -1.2
5 | RRIRRRPPRLPRPRPRPPFCPRP | 0.627
6 | RRIRCRPPRLPRPRPRPNYNPRP | -0.986
7 | RRIRQRPPRLPRPRPRPCHNPRP | -0.0554
8 | RRIRERPPRLPRPRPRPQTEPRP | -0.0317
9 | RRIRKRPPRLPRPRPRPLDSPRP | 0.233
10 | RRIRHRPPRLPRPRPRPQWCPRP | -0.218
11 | RRIRVRPPRLPRPRPRPTKMPRP | 0.0488
12 | RRIRHRPPRLPRPRPRPSMCPRP | -0.448
13 | RRIRFRPPRLPRPRPRPFTHPRP | -0.296
14 | RRIRGRPPRLPRPRPRPLVTPRP | 1.2
15 | RRIRCRPPRLPRPRPRPHAWPRP | -0.245
16 | RRIRNRPPRLPRPRPRPERTPRP | -0.00566
17 | RRIRVRPPRLPRPRPRPPQAPRP | 0.0808
18 | RRIRSRPPRLPRPRPRPHVHPRP | -0.412
19 | RRIRERPPRLPRPRPRPFHKPRP | -0.355
20 | RRIRLRPPRLPRPRPRPACAPRP | 0.541
21 | RRIRNRPPRLPRPRPRPVCHPRP | -0.169
22 | RRIRCRPPRLPRPRPRPKCSPRP | 0.0495
23 | RRIRIRPPRLPRPRPRPQPGPRP | 0.116
24 | RRIRYRPPRLPRPRPRPFLRPRP | -0.308
25 | RRIRYRPPRLPRPRPRPNLGPRP | -0.0146

Row | Sequence | shrunken log2 fold change
26 | RRIRQRPPRLPRPRPRPEEGPRP | -0.0102
27 | RRIRKRPPRLPRPRPRPPDIPRP | 0.609
28 | RRIRLRPPRLPRPRPRPFEKPRP | -0.0511
29 | RRIRLRPPRLPRPRPRPACHPRP | 0.186
30 | RRIRKRPPRLPRPRPRPNACPRP | 0.0357
31 | RRIRKRPPRLPRPRPRPNKMPRP | -0.231
32 | RRIRGRPPRLPRPRPRPDNKPRP | -0.169
33 | RRIRWRPPRLPRPRPRPWNVPRP | 0.0207
34 | RRIRHRPPRLPRPRPRPFPDPRP | 0.0592
35 | RRIRYRPPRLPRPRPRPLVPPRP | -0.539
36 | RRIRKRPPRLPRPRPRPPYPPRP | 0.0247
37 | RRIRSRPPRLPRPRPRPGMKPRP | -0.0636
38 | RRIRLRPPRLPRPRPRPEYGPRP | -0.029
39 | RRIRKRPPRLPRPRPRPCLKPRP | -0.0379
40 | RRIRNRPPRLPRPRPRPQCPPRP | -0.33
41 | RRIRVRPPRLPRPRPRPRANPRP | 0.384
42 | RRIRRRPPRLPRPRPRPLIRPRP | -0.295
43 | RRIRRRPPRLPRPRPRPLPLPRP | 0.0912
44 | RRIRGRPPRLPRPRPRPSQPPRP | 0.138
45 | RRIRARPPRLPRPRPRPKVTPRP | 0.0237
46 | RRIRVRPPRLPRPRPRPYRVPRP | -0.0295
47 | RRIRYRPPRLPRPRPRPHHTPRP | -0.418
48 | RRIRQRPPRLPRPRPRPGMIPRP | -0.446
49 | RRIRNRPPRLPRPRPRPRIYPRP | -0.0955
50 | RRIRWRPPRLPRPRPRPWDRPRP | 0.215

Row | Sequence | shrunken log2 fold change
51 | RRIRCRPPRLPRPRPRPWTFPRP | -0.126
52 | RRIRVRPPRLPRPRPRPFCCPRP | -0.0229
53 | RRIRPRPPRLPRPRPRPLSMPRP | -0.33
54 | RRIRPRPPRLPRPRPRPWMYPRP | -0.691
55 | RRIRKRPPRLPRPRPRPFNKPRP | -0.0789
56 | RRIRSRPPRLPRPRPRPMLPPRP | -0.078
57 | RRIRPRPPRLPRPRPRPSEMPRP | -0.216
58 | RRIRGRPPRLPRPRPRPHMNPRP | 0.298
59 | RRIRTRPPRLPRPRPRPAWGPRP | 0.142
60 | RRIRPRPPRLPRPRPRPIWDPRP | -0.0628
61 | RRIRFRPPRLPRPRPRPSGDPRP | -0.202
62 | RRIRLRPPRLPRPRPRPPLPPRP | 0.502
63 | RRIRYRPPRLPRPRPRPTALPRP | -0.0277
64 | RRIRGRPPRLPRPRPRPWEQPRP | 0.724
65 | RRIRFRPPRLPRPRPRPYGVPRP | -0.00783
66 | RRIRQRPPRLPRPRPRPDAPPRP | 0.655
67 | RRIRYRPPRLPRPRPRPNMWPRP | -0.391
68 | RRIRNRPPRLPRPRPRPNRYPRP | -0.0433
69 | RRIRARPPRLPRPRPRPNLPPRP | 0.158
70 | RRIRKRPPRLPRPRPRPYEGPRP | -0.0017
71 | RRIRLRPPRLPRPRPRPQPNPRP | -0.00696
72 | RRIRKRPPRLPRPRPRPEVIPRP | -0.00256
73 | RRIRTRPPRLPRPRPRPQYRPRP | -0.0697
74 | RRIRPRPPRLPRPRPRPQQWPRP | 0.182
75 | RRIRLRPPRLPRPRPRPEWMPRP | -0.00172

Row | Sequence | shrunken log2 fold change
76 | RRIRMRPPRLPRPRPRPGVEPRP | 1.39
77 | RRIRKRPPRLPRPRPRPLSVPRP | -0.00128
78 | RRIRQRPPRLPRPRPRPALSPRP | 0.217
79 | RRIRHRPPRLPRPRPRPPRWPRP | 0.137
80 | RRIRWRPPRLPRPRPRPAVLPRP | 0.117
81 | RRIRGRPPRLPRPRPRPRFLPRP | 0.448
82 | RRIRLRPPRLPRPRPRPVHYPRP | -0.498
83 | RRIRYRPPRLPRPRPRPNCMPRP | -0.974
84 | RRIRPRPPRLPRPRPRPWGNPRP | -0.225
85 | RRIRWRPPRLPRPRPRPLSGPRP | 0.34
86 | RRIRHRPPRLPRPRPRPKSMPRP | -0.503
87 | RRIRGRPPRLPRPRPRPRMNPRP | 0.572
88 | RRIRDRPPRLPRPRPRPQTYPRP | -0.24
89 | RRIRFRPPRLPRPRPRPSWQPRP | -0.149
90 | RRIRLRPPRLPRPRPRPGPQPRP | 0.228
91 | RRIRSRPPRLPRPRPRPCASPRP | 0.121
92 | RRIRCRPPRLPRPRPRPKHCPRP | -0.166
93 | RRIRNRPPRLPRPRPRPMNCPRP | -0.57
94 | RRIRQRPPRLPRPRPRPKTHPRP | -0.389
95 | RRIRMRPPRLPRPRPRPWMIPRP | -0.136
96 | RRIRSRPPRLPRPRPRPEDKPRP | -0.00968
97 | RRIRHRPPRLPRPRPRPKQPPRP | -0.00478
98 | RRIRWRPPRLPRPRPRPAELPRP | -0.0722
99 | RRIRLRPPRLPRPRPRPEFWPRP | 0.417
100 | RRIRDRPPRLPRPRPRPIHYPRP | -0.0149

Row | Sequence | shrunken log2 fold change
101 | RRIRIRPPRLPRPRPRPAPKPRP | 0.187
102 | RRIRYRPPRLPRPRPRPLDLPRP | -0.0215
103 | RRIRHRPPRLPRPRPRPQGFPRP | -0.00136
104 | RRIRIRPPRLPRPRPRPHTVPRP | -0.588
105 | RRIRERPPRLPRPRPRPPFPPRP | 0.018
106 | RRIRYRPPRLPRPRPRPGPRPRP | 0.744
107 | RRIRPRPPRLPRPRPRPDCHPRP | -0.204
108 | RRIRYRPPRLPRPRPRPLGTPRP | -0.227
109 | RRIRTRPPRLPRPRPRPQTDPRP | -0.466
110 | RRIRARPPRLPRPRPRPQRDPRP | 0.225
111 | RRIRLRPPRLPRPRPRPQCAPRP | 0.228
112 | RRIRERPPRLPRPRPRPPTDPRP | -0.0968
113 | RRIRGRPPRLPRPRPRPFEWPRP | -0.127
114 | RRIRFRPPRLPRPRPRPYLWPRP | -0.309
115 | RRIRCRPPRLPRPRPRPVPYPRP | -0.533
116 | RRIRYRPPRLPRPRPRPEFIPRP | -0.628
117 | RRIRVRPPRLPRPRPRPNQPPRP | -0.0412
118 | RRIRFRPPRLPRPRPRPPCHPRP | -0.0556
119 | RRIRGRPPRLPRPRPRPCKWPRP | -0.075
120 | RRIRQRPPRLPRPRPRPCEGPRP | -0.000921
121 | RRIRMRPPRLPRPRPRPEGLPRP | 0.0151
122 | RRIRCRPPRLPRPRPRPATGPRP | 0.201
123 | RRIRLRPPRLPRPRPRPWGSPRP | 0.103
124 | RRIRQRPPRLPRPRPRPMHCPRP | 0.0165
125 | RRIRKRPPRLPRPRPRPISWPRP | -0.0574

Row | Sequence | shrunken log2 fold change
126 | RRIRHRPPRLPRPRPRPRFGPRP | 0.0573
127 | RRIRQRPPRLPRPRPRPPMPPRP | 0.237
128 | RRIRFRPPRLPRPRPRPCFYPRP | -0.394
129 | RRIRARPPRLPRPRPRPEHTPRP | 0.0124
130 | RRIRVRPPRLPRPRPRPHRFPRP | 0.0259
131 | RRIRARPPRLPRPRPRPIYPPRP | -0.387
132 | RRIRQRPPRLPRPRPRPGGKPRP | -0.0313
133 | RRIRYRPPRLPRPRPRPKTQPRP | 0.0853
134 | RRIRERPPRLPRPRPRPCKSPRP | -0.0225
135 | RRIRHRPPRLPRPRPRPGVYPRP | -0.138
136 | RRIRLRPPRLPRPRPRPNPDPRP | 0.0991
137 | RRIRPRPPRLPRPRPRPSFRPRP | -0.142
138 | RRIRWRPPRLPRPRPRPHPPPRP | 0.348
139 | RRIRKRPPRLPRPRPRPLPHPRP | -0.0107
140 | RRIRKRPPRLPRPRPRPSECPRP | -0.0384
141 | RRIRARPPRLPRPRPRPGLGPRP | 1.16
142 | RRIRNRPPRLPRPRPRPHRYPRP | -0.345
143 | RRIRFRPPRLPRPRPRPLNDPRP | -0.839
144 | RRIRPRPPRLPRPRPRPITTPRP | -0.139
145 | RRIRGRPPRLPRPRPRPLPIPRP | 0.0433
146 | RRIRFRPPRLPRPRPRPICIPRP | -0.399
147 | RRIRIRPPRLPRPRPRPWTGPRP | -0.0257
148 | RRIRLRPPRLPRPRPRPNKQPRP | -0.0903
149 | RRIRMRPPRLPRPRPRPRIDPRP | 0.0569
150 | RRIRNRPPRLPRPRPRPHQAPRP | -0.0146
